Laboratory results as given in doi:10.1101/2025.02.14.638281 (bioRxiv, 2025).
Where “and” joins values, the source holds several entries; their conditions need not be identical. Identical values can stand only once.

Biological target: the molecule itself
Experiment: SEC

B1: Synechocystis sp. PCC 6803 fructose-1,6-bisphosphatase (FBPase; slr0952) (enzyme, UniProt P74324 1-347, looked up)
chain: MTVSEIHIPNSLLDRDCTTLSRHVLQQLNSFGADAQDLSAIMNRIALAGKLIARRLSRAGLMADVLGFTGETNVQGESVKKMDVFANDVFISVFKQSGLVCRLASEEMEKPYYIPENCPIGRYTLLYDPIDGSSNVDINLNVGSIFAIRQQEGDDLDGSASDLLANGDKQIAAGYILYGPSTILVYSLGSGVHSFILDPSLGEFILAQENIRIPNHGPIYSTNEGNFWQWDEALRDYTRYVHRHEGYTARYSGALVGDIHRILMQGGVFLYPGTEKNPDGKLRLLYETAPLAFLVEQAGGRASDGQKRLLDLIPSKLHQRTPAIIGSAEDVKLVESFISDHKQRQGN
In the case of B1, the “stoichiometry N” value is reported as 12 and 4.
